In PMC10397247:
Values belong to the binder of their own block, whether it stands above or below them.

What was measured:
Assay in all cases: two-hybrid library CCmax;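 further: natural log of median RNA to DNA barcode read ratio; higher means stronger binding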
4H2873-AA = biological target: T1, 4H2873-AA
T1 chain: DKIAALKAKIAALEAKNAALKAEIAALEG

4H2985-AA = biological target: T2, 4H2985-AA; settings: mean of both orientations
T2 chain: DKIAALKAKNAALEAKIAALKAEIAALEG

4H3134-AA = biological target: T3, 4H3134-AA; settings: mean of both orientations
T3 chain: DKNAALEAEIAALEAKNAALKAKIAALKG

4H3409-AA = biological target: T4, 4H3409-AA; settings: mean of both orientations
T4 chain: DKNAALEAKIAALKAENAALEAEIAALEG

4H3625-AA = biological target: T5, 4H3625-AA; settings: mean of both orientations
T5 chain: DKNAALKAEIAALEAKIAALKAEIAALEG

4H390-AA = biological target: T6, 4H390-AA; settings: mean of both orientations
T6 chain: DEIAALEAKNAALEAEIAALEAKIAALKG

4H3940-AA = biological target: T7, 4H3940-AA; settings: mean of both orientations
T7 chain: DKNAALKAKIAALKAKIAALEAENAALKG

4H510-AA = biological target: T8, 4H510-AA; settings: mean of both orientations
T8 chain: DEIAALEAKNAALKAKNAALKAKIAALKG

4H775-AA = biological target: T9, 4H775-AA; settings: mean of both orientations
T9 chain: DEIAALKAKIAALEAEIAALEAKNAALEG

4H816-AA = biological target: T10, 4H816-AA; settings: mean of both orientations
T10 chain: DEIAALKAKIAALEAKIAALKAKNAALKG

4H87-AA = biological target: T11, 4H87-AA; settings: mean of both orientations
T11 chain: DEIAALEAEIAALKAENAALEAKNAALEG

4H2190-AA = biological target: T12, 4H2190-AA
T12 chain: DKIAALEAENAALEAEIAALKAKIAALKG

4H2277-AA = biological target: T13, 4H2277-AA; settings: mean of both orientations
T13 chain: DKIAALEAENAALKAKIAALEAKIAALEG

4H234-AA = biological target: T14, 4H234-AA; settings: mean of both orientations
T14 chain: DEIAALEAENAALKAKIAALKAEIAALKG

4H2354-AA = biological target: T15, 4H2354-AA; settings: mean of both orientations
T15 chain: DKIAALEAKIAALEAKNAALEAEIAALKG

4H2393-AA = biological target: T16, 4H2393-AA; settings: mean of both orientations
T16 chain: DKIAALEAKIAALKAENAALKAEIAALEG

4H2466-AA = biological target: T17, 4H2466-AA; settings: mean of both orientations
T17 chain: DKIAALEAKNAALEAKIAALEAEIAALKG

4H2505-AA = biological target: T18, 4H2505-AA; settings: mean of both orientations
T18 chain: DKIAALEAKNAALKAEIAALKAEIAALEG

4H2575-AA = biological target: T19, 4H2575-AA; settings: mean of both orientations
T19 chain: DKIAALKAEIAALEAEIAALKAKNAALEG

4H2617-AA = biological target: T20, 4H2617-AA; settings: mean of both orientations
T20 chain: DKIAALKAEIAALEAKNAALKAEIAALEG

4H2642-AA = biological target: T21, 4H2642-AA; settings: mean of both orientations
T21 chain: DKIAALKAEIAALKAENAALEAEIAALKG

4H2729-AA = biological target: T22, 4H2729-AA; settings: mean of both orientations
T22 chain: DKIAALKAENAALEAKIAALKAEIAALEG

4H2754-AA = biological target: T23, 4H2754-AA; settings: mean of both orientations
T23 chain: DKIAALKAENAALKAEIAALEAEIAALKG

4H2837-AA = biological target: T24, 4H2837-AA; settings: mean of both orientations
T24 chain: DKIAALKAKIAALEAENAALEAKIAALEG

4H2883-AA = biological target: T25, 4H2883-AA; settings: mean of both orientations
T25 chain: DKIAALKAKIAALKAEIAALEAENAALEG

4H2944-AA = biological target: T26, 4H2944-AA; settings: mean of both orientations
T26 chain: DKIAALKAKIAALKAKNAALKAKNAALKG

4H2949-AA = biological target: T27, 4H2949-AA; settings: mean of both orientations
T27 chain: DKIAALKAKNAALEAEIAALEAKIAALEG

4H3112-AA = biological target: T28, 4H3112-AA; settings: mean of both orientations
T28 chain: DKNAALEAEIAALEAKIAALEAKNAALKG

4H317-AA = biological target: T29, 4H317-AA; settings: mean of both orientations
T29 chain: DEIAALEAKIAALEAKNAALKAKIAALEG

4H3343-AA = biological target: T30, 4H3343-AA; settings: mean of both orientations
T30 chain: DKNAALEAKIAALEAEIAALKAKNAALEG

4H335-AA = biological target: T31, 4H335-AA; settings: mean of both orientations
T31 chain: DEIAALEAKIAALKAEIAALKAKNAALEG

4H342-AA = biological target: T32, 4H342-AA; settings: mean of both orientations
T32 chain: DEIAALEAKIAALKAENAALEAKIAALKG

4H3427-AA = biological target: T33, 4H3427-AA; settings: mean of both orientations
T33 chain: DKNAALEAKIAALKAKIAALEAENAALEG

4H3606-AA = biological target: T34, 4H3606-AA; settings: mean of both orientations
T34 chain: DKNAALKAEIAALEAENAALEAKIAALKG

4H3627-AA = biological target: T35, 4H3627-AA; settings: mean of both orientations
T35 chain: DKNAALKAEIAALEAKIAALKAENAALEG

4H3655-AA = biological target: T36, 4H3655-AA; settings: mean of both orientations
T36 chain: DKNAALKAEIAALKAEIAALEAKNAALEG

4H3844-AA = biological target: T37, 4H3844-AA; settings: mean of both orientations
T37 chain: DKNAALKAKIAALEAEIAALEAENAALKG

4H3921-AA = biological target: T38, 4H3921-AA; settings: mean of both orientations
T38 chain: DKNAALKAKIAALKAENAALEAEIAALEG

4H429-AA = biological target: T39, 4H429-AA; settings: mean of both orientations
T39 chain: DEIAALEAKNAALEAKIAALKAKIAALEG

4H454-AA = biological target: T40, 4H454-AA; settings: mean of both orientations
T40 chain: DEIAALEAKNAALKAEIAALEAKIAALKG

4H48-AA = biological target: T41, 4H48-AA; settings: mean of both orientations
T41 chain: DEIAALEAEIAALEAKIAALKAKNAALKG

4H566-AA = biological target: T42, 4H566-AA; settings: mean of both orientations
T42 chain: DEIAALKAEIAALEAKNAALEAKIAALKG

4H605-AA = biological target: T43, 4H605-AA; settings: mean of both orientations
T43 chain: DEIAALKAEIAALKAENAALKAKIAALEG

4H678-AA = biological target: T44, 4H678-AA; settings: mean of both orientations
T44 chain: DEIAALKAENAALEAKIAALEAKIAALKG

4H717-AA = biological target: T45, 4H717-AA; settings: mean of both orientations
T45 chain: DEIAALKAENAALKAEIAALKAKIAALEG

4H780-AA = biological target: T46, 4H780-AA; settings: mean of both orientations
T46 chain: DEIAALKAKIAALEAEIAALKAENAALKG

4H794-AA = biological target: T47, 4H794-AA; settings: mean of both orientations
T47 chain: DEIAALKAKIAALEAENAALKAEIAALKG

4H881-AA = biological target: T48, 4H881-AA; settings: mean of both orientations
T48 chain: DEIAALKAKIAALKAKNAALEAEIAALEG

4H906-AA = biological target: T49, 4H906-AA; settings: mean of both orientations
T49 chain: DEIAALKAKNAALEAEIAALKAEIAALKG

4H993-AA = biological target: T50, 4H993-AA; settings: mean of both orientations
T50 chain: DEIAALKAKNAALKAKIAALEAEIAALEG

interaction score (4H2873-AA): 0.429 | interaction score (4H2985-AA): 2.29 | interaction score (4H3134-AA): 1.06 | interaction score (4H3409-AA): 0.324 | interaction score (4H3625-AA): 1.8 | interaction score (4H390-AA): 2.21 | interaction score (4H3940-AA): -1.33 | interaction score (4H510-AA): -0.174 | interaction score (4H775-AA): -0.187 | interaction score (4H816-AA): -0.999 | interaction score (4H87-AA): 0.464
Binder: DKIAALKAKIAALEAKNAALKAEIAALEG [4H2873-AA]

interaction score (4H2190-AA): 2.19 | interaction score (4H2277-AA): 1.06 | interaction score (4H234-AA): 1.66 | interaction score (4H2354-AA): -0.303 | interaction score (4H2393-AA): 0.996 | interaction score (4H2466-AA): 0.489 | interaction score (4H2505-AA): 2.21 | interaction score (4H2575-AA): -0.718 | interaction score (4H2617-AA): 0.788 | interaction score (4H2642-AA): -0.738 | interaction score (4H2729-AA): 2.26 | interaction score (4H2754-AA): 2.3 | interaction score (4H2837-AA): -1.55 | interaction score (4H2883-AA): 0.596 | interaction score (4H2944-AA): -1.51 | interaction score (4H2949-AA): 2.07 | interaction score (4H3112-AA): -0.916 | interaction score (4H317-AA): 2.09 | interaction score (4H3343-AA): -1.32 | interaction score (4H335-AA): 0.22 | interaction score (4H342-AA): 0.437 | interaction score (4H3427-AA): -1.15 | interaction score (4H3606-AA): -0.529 | interaction score (4H3627-AA): -0.558 | interaction score (4H3655-AA): 1.73 | interaction score (4H3844-AA): 0.147 | interaction score (4H3921-AA): -1.21 | interaction score (4H429-AA): 1.95 | interaction score (4H454-AA): 1.72 | interaction score (4H48-AA): -0.0631 | interaction score (4H566-AA): 0.26 | interaction score (4H605-AA): -1.55 | interaction score (4H678-AA): -0.81 | interaction score (4H717-AA): 1.16 | interaction score (4H780-AA): -1.55 | interaction score (4H794-AA): -0.883 | interaction score (4H881-AA): 0.176 | interaction score (4H906-AA): 1.04 | interaction score (4H993-AA): 2.17
Binder: DKIAALEAENAALEAEIAALKAKIAALKG [4H2190-AA]
